These results are taken from US5418135.

Bounds are passed on as bounds.

This test addresses PDGF receptor (cell membrane-bound receptor for native PDGF).
With “A4, Endo Lys-C fragment aa 80-110 of alkylated PDGF A monomer (peptide)”, the HALF-MAX INHIBITION (3H-thymidine incorporation induced by PDGF dimer) was 100 nM.

In turn, “A6, Endo Lys-C fragment aa 12-41 of alkylated PDGF A monomer (peptide)” had an HALF-MAX INHIBITION (3H-thymidine incorporation induced by PDGF dimer) of over 200 nM.

Substance “PDGF A chain monomer, intact, Cys residues pyridylethylated (ligand)” yielded an HALF-MAX INHIBITION (3H-thymidine incorporation induced by PDGF dimer) of 100 nM.
